Measured values taken from patent US20180343839A1 (BROAD INSTITUTE, published 2018).

Target: RAB28 (human, UniProt P51157 2-218)
Experiment: CRBN interaction study (HA-CRBN immunoprecipitation, SILAC MS); assay not given

binding result: no binding
B1: HA-CRBN (hemagglutinin (HA)-tagged human CRBN) (other)
chain: MAGEGDQQDAAHNMGNHLPLLPESEEEDEMEVEDQDSKEAKKPNIINFDTSLPTSHTYLGADMEEFHGRTLHDDDSCQVIPVLPQVMMILIPGQTLPLQLFHPQEVSMVRNLIQKDRTFAVLAYSNVQEREAQFGTTAEIYAYREEQDFGIEIVKVKAIGRQRFKVLELRTQSDGIQQAKVQILPECVLPSTMSAVQLESLNKCQIFPSKPVSREDQCSYKWWQKYQKRKFHCANLTSWPRWLYSLYDAETLMDRIKKQLREWDENLKDDSLPSNPIDFSYRVAACLPIDDVLRIQLLKIGSAIQRLRCELDIMNKCTSLCCKQCQETEITTKNEIFSLSLCGPMAAYVNPHGYVHETLTVYKACNLNLIGRPSTEHSWFPGYAWTVAQCKICASHIGWKFTATKKDMSPQKFWGLTRSALLPTIPDTEDEISPDKVILCL
notes: the clone used (Broad ORF007943.1_s300c1); its numbering fits V387, Y383 and W385 as printed; also called HA-tagged CRBN; HA-CBRN; not shown: HA tag
